Laboratory results published in article PMC8097376 (EMBO Reports, 2021).

Experiments:
[1] = target: T1, SARS-CoV-2 spike receptor-binding domain (RBD) (SARS-CoV-2, UniProt P0DTC2, biotinylated for BLI (site not stated); covalently coupled to MagPlex beads by EDC/sNHS in the bead assays); assay: BLI; settings: both partners purified
[2] = target: T1, SARS-CoV-2 spike receptor-binding …; assay: bead-based multiplex ACE2 competi; settings: both partners purified

B1: nanobody NM1226 (VHH)
VHH: QVQLVESGGGSVQPGGSLRLSCLGSGSLDYYAIGWFRQAPGKEREGVSCIASSGDRTIYADSVKGRFTISRDYGKNTVYLQMNSLKPEDTAMYYCAALQGSYYYTGFVANEYDYWGQGAPVTVSS
Binder B1 has a Kd [1] of 3.66 nM and an IC50 [2] of 0.82 nM.
